This is an account of results in article PMC5643242 (The FEBS journal, 2017).

Like-named read-outs stand apart in the source and are kept apart here.

Assay in all cases: stopped-flow fluorescence
The target of test [1] is T1, Cdc42 GTPase (residues 1-179), loaded with mantGppNHp (human, UniProt P60953 1-179).
The target of test [2] is T1, Cdc42 GTPase (residues 1-179), loaded …. The source holds these as a separate data set.
For test [3] the target is unchanged. The source holds these as a separate data set.
The target is the same in test [4]. This is another data set of the same source.
The target is the same in test [5]. The source holds these as a separate data set.

T1 sequence (P60953 1-179): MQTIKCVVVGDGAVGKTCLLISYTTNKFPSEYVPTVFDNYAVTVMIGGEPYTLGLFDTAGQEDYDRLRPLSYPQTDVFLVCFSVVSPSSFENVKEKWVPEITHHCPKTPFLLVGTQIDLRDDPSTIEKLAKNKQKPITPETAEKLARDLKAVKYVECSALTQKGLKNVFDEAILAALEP

B1: Wiskott-Aldrich Syndrome protein (WASP) GTPase binding domain (GBD) construct, residues 154-322 (domain or fragment, human, UniProt P42768 154-322, looked up)
chain: GDRRQLPPPPTPANEERRGGLPPLPLHPGGDQGGPPVGPLSLGLATVDIQNPDITSSRYRGLPAPGPSPADKKRSGKKKISKADIGAPSGFKHVSHVGWDPQNGFDVNNLDPDLRSLFSRAGISEAQLTDAETSKLIYDFIEDQGGLEAVRQEMRRQEPLPPPPPPSRG
For B1, the kon (in general, the rate constant with which the complex forms) was found to be 1.63e+07 M⁻¹ s⁻¹ in test [1], 1.75e+07 M⁻¹ s⁻¹ in test [2], 1.2e+07 M⁻¹ s⁻¹ in test [4] and 2.07e+07 M⁻¹ s⁻¹ in test [5]. In addition, in test [3], the “fold decrease of ka at 2 M urea against no urea” value stood at 3.4 fold. Moreover, the dissociation rate constant (koff) (as a rule, the first-order rate constant of dissociation) in test [4] amounted to 4.1 ± 1.7 s⁻¹.
